Positions count from the first letter of the chain named.
T1: Cynomolgus monkey CD1a protein (Cynomolgus monkey)
T1 chain: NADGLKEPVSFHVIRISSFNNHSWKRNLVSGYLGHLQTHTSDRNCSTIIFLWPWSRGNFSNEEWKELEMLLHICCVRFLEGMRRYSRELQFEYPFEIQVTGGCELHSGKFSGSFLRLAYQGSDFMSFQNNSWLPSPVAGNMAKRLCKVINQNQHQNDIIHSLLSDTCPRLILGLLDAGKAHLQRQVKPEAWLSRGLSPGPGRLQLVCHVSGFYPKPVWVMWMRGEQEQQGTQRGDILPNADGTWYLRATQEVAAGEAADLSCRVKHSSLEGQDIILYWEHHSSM

B1: 110 (VR12112) (antibody, V domains shown)
VH: QSVEESGGRLVTPGTPLTLTCTVSGFSLSSYAMIWVRQAPGKGLEWIGIINSSDNTHYATWAKGRFTISKTSTTVDLKITSPTTEDTATYFCARDPYDYGYGWYFDLWGPGTLVTVSS
VL: AQVLTQTPSPVSAAVGGTVTINCQASQSVFNNKNLAWYQQKPGQPPKLLIYKASTLASGVSSRFKGSGSGTQFALTISGVQCDDAATYYCQGEFSCSSTDCVTFGGGTEVVVK
notes: also called OX110; antibody 110
B2: 77A (VR11851) (antibody, V domains shown)
VH: QSVEESGGRLVTPGTPLTLTCTVSGFSLSSYAMSWVRQAPGKGLEWIGIISSSGTTYYASWAKGRFTISKTSTTVDLKITSPTTEDTATYFCARVDYYSSGWGGLWGPGTLVTVSS
VL: AVEMTQTPASMSAAVGGTVTIKCQASEDIYSNLAWYQQKPGQPPKLLIYGASTLASGVPSRFKGSGSGTEYTLTISGVQCDDAATYYCQCTYDTSSYGNTFGGGTEMVVE
notes: also called OX77a; antibody 77a
B3: 111 (VR12113) (antibody, V domains shown)
VH: QSVEESGGRLVTPGTPLTLTCTASGFSLSTYAMSWVRQAPGKGLEWIGIISSSGSTYYASWAKGRFTISKTSTTVDLKITSPTTEDTATYFCARETWYWLDLWGQGTLVTVSS
VL: B2 VL with M11V, K22N, T91A, T94S, N99T, T100P, M107V, E110K
notes: also called OX111
B4: 116 (VR12117) (antibody, V domains shown)
VH: QSVEESGGRLVTPGTPLTLTCTVSGFSLSNYAMSWVRQAPGKGLEWIGIIYTTGFTYYASWVKGRFTISKTSTTVDLKITSPTTEDTATYFCARGLATYVSPPTRLDLWGQGTLVTVSS
VL: AQVLTQTPSPVSAAVGGTVTINCQASQSIYNSKNLAWYQQKPGQPPKLLIYSASTLASGVPSRFKGSGSGTQFTLTISDLECDDAATYYCQGEFSCSSVDCATFGGGTEVVVK
notes: also called OX116

Molecular target: T2, chimeric CD1a pool B protein [human CD1a lipid binding domain, mouse CD1d Ig domain] (human; mouse, UniProt P06126 18-201; P11609 205-297, limits assumed)
T2 sequence (P06126 other isoform, or with tags, fused parts or gaps mutant limits assumed): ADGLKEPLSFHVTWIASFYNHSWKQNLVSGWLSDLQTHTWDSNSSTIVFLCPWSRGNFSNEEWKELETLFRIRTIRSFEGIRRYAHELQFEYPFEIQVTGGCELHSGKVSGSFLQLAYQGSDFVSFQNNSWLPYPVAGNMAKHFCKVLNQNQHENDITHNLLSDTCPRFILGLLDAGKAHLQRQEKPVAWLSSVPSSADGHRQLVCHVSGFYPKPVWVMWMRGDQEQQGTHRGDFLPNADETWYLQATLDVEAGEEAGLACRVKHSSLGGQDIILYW
Assay: ELISA, 10 µg/ml antibody
Description: (§1) CD1a-specific antibodies were identified by ELISA. […] 20 μl/well of peroxidase-conjugated goat anti-species IgG Fc-specific F(ab′)2 fragment (Jackson ImmunoResearch), diluted 1:5000 in block buffer was added and incubated at room temperature for 1 hour, followed by washing with wash buffer.
(§2) The antibodies were titrated through a dilution series and compared to a control rabbit IgG antibody. […] Data shown for purified antibodies.

Binder | Optical Density (OD)
B1 | 1.46
B2 | 1.31
B3 | 1.4
B4 | 1.4

Molecular target: T3, human CD1a expressed on cells (human, UniProt P06126 17-327; P61769 21-119)
T3 construct: also called HEK - CD1a; C1R - CD1a
Assay: flow cytometry, HEK-293 cells, 1 µg/ml antibody
Description: (§3) Binding to proteins expressed on HEK, C1R and MOLT4 cell lines was assessed. […] The C1R-CD1a, C1R-empty vector and MOLT4 cell lines were washed in 1×PBS on the day required. All cell lines were counted and resuspended in 1×PBS and then stained for 30 minutes at 37° C. using the DiI or DiO cellular stains (Invitrogen). Cells were washed with flow cytometry buffer (1% bovine serum albumin, 2 mM EDTA and 0.1% sodium azide in PBS) before mixing 2 DiI-stained and DiO-stained populations together. The cells (20 μl/well) were then added to dilutions of antibody sample (B cell culture supernatant, TAP supernatant, clone supernatant, purified antibody solution) (20 μl/well) and incubated for 1 hour at 4° C. in a flow cytometry assay plate, before being washed with flow cytometry buffer. 10 μl/well of Alexafluor647-conjugated goat anti-species IgG Fc-specific F(ab′)2 fragment (Jackson ImmunoResearch), diluted 1:2500 in flow cytometry buffer, was added and incubated at 4° C. for 30 minutes, followed by washing with wash buffer. The fluorescence intensity was then measured on an iQue screener PLUS.
(§4) HEK-293 cells were transiently transfected with human CD1a, CD1b, CD1c or CD1d and co-transfected with human β2M.

Binder | Fluorescence Intensity Geomean (normalized to background) [fold over background]
B1 | 49.2
B2 | 41.9
B3 | 42
B4 | 48.2

Molecular target: T4, human CD1d expressed on HEK-293 cells (human, UniProt P15813 20-335; P61769 21-119)
T4 construct: also called HEK - CD1d
Assay: flow cytometry, HEK-293 cells, 1 µg/ml antibody
Description: as §3, §4

Binder | Fluorescence Intensity Geomean (normalized to background) [fold over background]
B1 | 1.1
B2 | 1
B3 | 1.1
B4 | 1

Molecular target: T5, human CD1b expressed on HEK-293 cells (human, UniProt P29016 18-333; P61769 21-119)
T5 construct: also called HEK - CD1b
Assay: flow cytometry, HEK-293 cells, 1 µg/ml antibody
Description: as §3, §4

Binder | Fluorescence Intensity Geomean (normalized to background) [fold over background]
B1 | 1.1
B2 | 1.1
B3 | 1
B4 | 1.1

Molecular target: T6, human CD1c expressed on HEK-293 cells (human, UniProt P29017 18-333; P61769 21-119)
T6 construct: also called HEK - CD1c
Assay: flow cytometry, HEK-293 cells, 1 µg/ml antibody
Description: as §3, §4

Binder | Fluorescence Intensity Geomean (normalized to background) [fold over background]
B1 | 1.1
B2 | 1
B3 | 1.1
B4 | 1.1

Molecular target: Chinese variant CD1a protein (human) (UniProt P06126)
Sequence (P06126 18-295, change not shown): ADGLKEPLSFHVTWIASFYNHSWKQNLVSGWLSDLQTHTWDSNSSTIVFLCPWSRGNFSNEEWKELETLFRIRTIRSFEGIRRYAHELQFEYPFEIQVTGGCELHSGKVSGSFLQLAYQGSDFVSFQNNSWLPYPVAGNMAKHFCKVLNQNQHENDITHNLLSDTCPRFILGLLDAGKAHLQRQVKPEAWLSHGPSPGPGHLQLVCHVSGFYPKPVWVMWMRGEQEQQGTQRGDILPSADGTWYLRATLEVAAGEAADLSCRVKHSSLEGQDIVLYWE
Assay: ELISA, 0.1 µg/ml antibody

Binder | Optical Density (OD)
B1 | 1.57
B2 | 1.05
B3 | 1.52
B4 | 1.53

Molecular target: T1, Cynomolgus monkey CD1a protein
Assay: ELISA, 1 µg/ml antibody

Binder | Optical Density (OD)
B1 | 0.94
B2 | 0.43
B3 | 0.69
B4 | 0.14

Molecular target: Cynomolgus monkey CD1a expressed on HEK-293 cells (Cynomolgus monkey, UniProt A0A2K5VQ68 17-326)
Sequence (A0A2K5VQ68 entry or part of it): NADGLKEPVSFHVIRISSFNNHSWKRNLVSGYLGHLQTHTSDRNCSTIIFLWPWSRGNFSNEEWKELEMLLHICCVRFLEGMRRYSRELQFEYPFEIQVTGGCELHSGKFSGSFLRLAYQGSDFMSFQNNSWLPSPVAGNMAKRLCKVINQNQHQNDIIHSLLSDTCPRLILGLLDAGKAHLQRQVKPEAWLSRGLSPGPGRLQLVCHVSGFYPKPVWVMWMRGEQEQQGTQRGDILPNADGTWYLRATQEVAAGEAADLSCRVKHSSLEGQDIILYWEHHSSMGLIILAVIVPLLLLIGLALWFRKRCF
Assay: flow cytometry, HEK-293 cells, 10 µg/ml antibody
Description: as §3
(§5) Binding was quantified as fold change in fluorescence intensity geomean over background assessed by flow cytometry.

Binder | Fluorescence Intensity Geomean (normalized to background) [fold over background]
B1 | 13.6
B2 | 1.4
B3 | 16.3
B4 | 1.7

Molecular target: T1, Cynomolgus monkey CD1a protein
Assay: ELISA, 10 µg/ml antibody

Binder | Optical Density (OD)
B1 | 0.86
B2 | 0.52
B3 | 0.79
B4 | 0.16

Molecular target: T3, human CD1a expressed on cells
Assay: flow cytometry, HEK-293 cells, 100 µg/ml antibody
Description: as §3, §4

Binder | Fluorescence Intensity Geomean (normalized to background) [fold over background]
B1 | 5.9
B2 | 4.1
B3 | 4.3
B4 | 3.9

Molecular target: T4, human CD1d expressed on HEK-293 cells
Assay: flow cytometry, HEK-293 cells, 100 µg/ml antibody
Description: as §3, §4

Binder | Fluorescence Intensity Geomean (normalized to background) [fold over background]
B1 | 1.1
B2 | 1
B3 | 1.1
B4 | 1

Molecular target: T5, human CD1b expressed on HEK-293 cells
Assay: flow cytometry, HEK-293 cells, 100 µg/ml antibody
Description: as §3, §4

Binder | Fluorescence Intensity Geomean (normalized to background) [fold over background]
B1 | 1.1
B2 | 1
B3 | 1.1
B4 | 1.1

Molecular target: T6, human CD1c expressed on HEK-293 cells
Assay: flow cytometry, HEK-293 cells, 100 µg/ml antibody
Description: as §3, §4

Binder | Fluorescence Intensity Geomean (normalized to background) [fold over background]
B1 | 1
B2 | 0.9
B3 | 1.1
B4 | 1

Molecular target: T3, human CD1a expressed on cells
Assay: flow cytometry, C1R cells, 100 µg/ml antibody
Description: as §3, §5

Binder | Fluorescence Intensity Geomean (normalized to background) [fold over background]
B1 | 4.8
B2 | 0.9
B3 | 7.3
B4 | 11.9

Molecular target: T3, human CD1a expressed on cells
Assay: flow cytometry, C1R cells, 3.16 µg/ml antibody
Description: as §3, §5

Binder | Fluorescence Intensity Geomean (normalized to background) [fold over background]
B1 | 15.2
B2 | 4.2
B3 | 15.6
B4 | 24

Molecular target: T7, human CD1a protein (pool B) (human, UniProt P06126 18-295, limits assumed)
T7 construct: Recombinant protein of the ELISA (coated) and the Biacore T200 titration; whole entry named; also called human CD1a pool B; full length CD1a
T7 sequence (P06126 18-295 limits assumed): as the sequence (P06126 18-295, change not shown) above
Assay: ELISA, 31.6 µg/ml antibody
Description: as §1
The antibodies were titrated through a dilution series and compared to a control rabbit IgG antibody.

Binder | Optical Density (OD)
B1 | 1.24
B2 | 1.28
B3 | 1.07
B4 | 1.16

Molecular target: T3, human CD1a expressed on cells
Assay: flow cytometry, HEK-293 cells, 10 µg/ml antibody
Description: as §3, §4

Binder | Fluorescence Intensity Geomean (normalized to background) [fold over background]
B1 | 15.7
B2 | 13.7
B3 | 11.1
B4 | 12.6

Molecular target: T4, human CD1d expressed on HEK-293 cells
Assay: flow cytometry, HEK-293 cells, 10 µg/ml antibody
Description: as §3, §4

Binder | Fluorescence Intensity Geomean (normalized to background) [fold over background]
B1 | 1
B2 | 1
B3 | 1.1
B4 | 1.1

Molecular target: T5, human CD1b expressed on HEK-293 cells
Assay: flow cytometry, HEK-293 cells, 10 µg/ml antibody
Description: as §3, §4

Binder | Fluorescence Intensity Geomean (normalized to background) [fold over background]
B1 | 1.1
B2 | 1.1
B3 | 1.1
B4 | 1

Molecular target: T6, human CD1c expressed on HEK-293 cells
Assay: flow cytometry, HEK-293 cells, 10 µg/ml antibody
Description: as §3, §4

Binder | Fluorescence Intensity Geomean (normalized to background) [fold over background]
B1 | 1
B2 | 0.9
B3 | 1
B4 | 1.1

Molecular target: T3, human CD1a expressed on cells
Assay: flow cytometry, C1R cells, 0.316 µg/ml antibody
Description: as §3, §5

Binder | Fluorescence Intensity Geomean (normalized to background) [fold over background]
B1 | 29.7
B2 | 19
B3 | 28.8
B4 | 27.5

Molecular target: T3, human CD1a expressed on cells
Assay: flow cytometry, C1R cells, 31.6 µg/ml antibody
Description: as §3, §5

Binder | Fluorescence Intensity Geomean (normalized to background) [fold over background]
B1 | 6.2
B2 | 1.3
B3 | 7
B4 | 13.7

Molecular target: T3, human CD1a expressed on cells
Assay: flow cytometry, C1R cells, 0.1 µg/ml antibody
Description: as §3, §5

Binder | Fluorescence Intensity Geomean (normalized to background) [fold over background]
B1 | 25.8
B2 | 16.4
B3 | 25.4
B4 | 27

Molecular target: T2, chimeric CD1a pool B protein [human …
Assay: ELISA, 100 µg/ml antibody
Description: as §1, §2

Binder | Optical Density (OD)
B1 | 1.4
B2 | 1.27
B3 | 1.27
B4 | 1.37

Molecular target: T2, chimeric CD1a pool B protein [human …
Assay: ELISA, 0.316 µg/ml antibody
Description: as §1, §2

Binder | Optical Density (OD)
B1 | 1.24
B2 | 1.28
B3 | 1.32
B4 | 1.32

From patent US20250289893A1 (OXFORD UNIVERSITY INNOVATION, published 2025)
